In publication PMC7473641, “The C-terminal helix of BubR1 is essential for CENP-E-dependent chromosome alignment” (Journal of Cell Science, 2020):

B1: CENP-E_(2055–2608), kinetochore- and centrosome-targeting domain of CENP-E (domain or fragment, human, UniProt Q02224-1 2055-2608, looked up)
chain: RDQFIATLREMIARDRQNHQVKPEKRLLSDGQQHLTESLREKCSRIKELLKRYSEMDDHYECLNRLSLDLEKEIEFQKELSMRVKANLSLPYLQTKHIEKLFTANQRCSMEFHRIMKKLKYVLSYVTKIKEEQHESINKFEMDFIDEVEKQKELLIKIQHLQQDCDVPSRELRDLKLNQNMDLHIEEILKDFSESEFPSIKTEFQQVLSNRKEMTQFLEEWLNTRFDIEKLKNGIQKENDRICQVNNFFNNRIIAIMNESTEFEERSATISKEWEQDLKSLKEKNEKLFKNYQTLKTSLASGAQVNPTTQDNKNPHVTSRATQLTTEKIRELENSLHEAKESAMHKESKIIKMQKELEVTNDIIAKLQAKVHESNKCLEKTKETIQVLQDKVALGAKPYKEEIEDLKMKLVKIDLEKMKNAKEFEKEISATKATVEYQKEVIRLLRENLRRSQQAQDTSVISEHTDPQPSNKPLTCGGGSGIVQNTKALILKSEHIRLEKEISKLKQQNEQLIKQKNELLSNNQHLSNEVKTWKERTLKREAHKQVTCENSPKS
notes: Dimer by SEC-MALS; Aggregated in 150 mM NaCl and was kept in 500 mM NaCl; Cloned in pET-3aTr; also called longer dimeric kinetochore-targeting domain; source: E. coli BL21-CodonPlus (DE3)-RIL, purified (HisTrap, Superdex 200 in 500 mM NaCl)
B2: CENP-E_(2091–2358)–GST (domain or fragment, human, UniProt Q02224-1 2091-2358, looked up)
chain: ESLREKCSRIKELLKRYSEMDDHYECLNRLSLDLEKEIEFQKELSMRVKANLSLPYLQTKHIEKLFTANQRCSMEFHRIMKKLKYVLSYVTKIKEEQHESINKFEMDFIDEVEKQKELLIKIQHLQQDCDVPSRELRDLKLNQNMDLHIEEILKDFSESEFPSIKTEFQQVLSNRKEMTQFLEEWLNTRFDIEKLKNGIQKENDRICQVNNFFNNRIIAIMNESTEFEERSATISKEWEQDLKSLKEKNEKLFKNYQTLKTSLASGAQ
notes: no own measurement; not shown: GST, C-terminal, kept
B3: CENP-E_(2055–2358), minimal kinetochore-targeting domain of CENP-E (domain or fragment, human, UniProt Q02224-1 2055-2358, looked up)
chain: RDQFIATLREMIARDRQNHQVKPEKRLLSDGQQHLTESLREKCSRIKELLKRYSEMDDHYECLNRLSLDLEKEIEFQKELSMRVKANLSLPYLQTKHIEKLFTANQRCSMEFHRIMKKLKYVLSYVTKIKEEQHESINKFEMDFIDEVEKQKELLIKIQHLQQDCDVPSRELRDLKLNQNMDLHIEEILKDFSESEFPSIKTEFQQVLSNRKEMTQFLEEWLNTRFDIEKLKNGIQKENDRICQVNNFFNNRIIAIMNESTEFEERSATISKEWEQDLKSLKEKNEKLFKNYQTLKTSLASGAQ
notes: Monomer by SEC-MALS; source: E. coli BL21-CodonPlus (DE3)-RIL, purified (HisTrap, Superdex 200)
B4: BubR1_(705–1050), pseudokinase domain of BubR1 (domain or fragment, human, UniProt O60566 705-1050, looked up)
chain: EKLELTNETSENPTQSPWCSQYRRQLLKSLPELSASAELCIEDRPMPKLEIEKEIELGNEDYCIKREYLICEDYKLFWVAPRNSAELTVIKVSSQPVPWDFYINLKLKERLNEDFDHFCSCYQYQDGCIVWHQYINCFTLQDLLQHSEYITHEITVLIIYNLLTIVEMLHKAEIVHGDLSPRCLILRNRIHDPYDCNKNNQALKIVDFSYSVDLRVQLDVFTLSGFRTVQILEGQKILANCSSPYQVDLFGIADLAHLLLFKEHLQVFWDGSFWKLSQNISELKDGELWNKFFVRILNANDEATVSVLGELAAEMNGVFDTTFQSHLNKALWKVGKLTSPGALLFQ
notes: source: E. coli BL21-CodonPlus (DE3)-RIL (overnight at 18°C), purified (HisTrap, 3C protease, SEC); not shown: His6, N-terminal, cleaved
B5: CENP-E_(2069–2358)–GST (domain or fragment, human, UniProt Q02224-1 2069-2358, looked up)
chain: DRQNHQVKPEKRLLSDGQQHLTESLREKCSRIKELLKRYSEMDDHYECLNRLSLDLEKEIEFQKELSMRVKANLSLPYLQTKHIEKLFTANQRCSMEFHRIMKKLKYVLSYVTKIKEEQHESINKFEMDFIDEVEKQKELLIKIQHLQQDCDVPSRELRDLKLNQNMDLHIEEILKDFSESEFPSIKTEFQQVLSNRKEMTQFLEEWLNTRFDIEKLKNGIQKENDRICQVNNFFNNRIIAIMNESTEFEERSATISKEWEQDLKSLKEKNEKLFKNYQTLKTSLASGAQ
notes: no own measurement of the oligomeric state; source: E. coli BL21-CodonPlus (DE3)-RIL, purified; not shown: GST, C-terminal, kept

What was measured:
[1] = biological target: the molecule itself; assay: SEC-MALS; 100 µl at 1 mg/ml on Superdex-200 10/300 GL Increase, 22°C, gel filtration buffer (20 mM HEPES pH 7.5, 300 mM NaCl, or 500 mM for CENP-E 2055-2608, 1 mM EDTA, 1 mM DTT)
[2] = biological target: T1, BubR1_(432–1050), C terminus of BubR1 containing the pseudokinase domain (human, UniProt O60566 432-1050); assay: SEC; co-elution on Superdex Increase 200 10/300 GL in binding buffer (20 mM HEPES pH 7.5, 150 mM NaCl, 1 mM EDTA, 1 mM DTT); proteins mixed in equimolar ratio at ~7 µM; fractions on Coomassie gels; details: both partners purified
T1 construct: source: purified recombinant

[3] = biological target: B4; assay: ITC; 276 µM BubR1 705-1050 titrated into 25 µM CENP-E 2091-2358-GST at 37°C; 20 mM HEPES pH 7.5, 150 mM NaCl, 1 mM EDTA, 0.005% Tween-20, 0.5 mM TCEP; one set of sites; details: both partners purified
[4] = biological target: B4; assay: SEC; co-elution on Superdex Increase 200 10/300 GL in binding buffer (20 mM HEPES pH 7.5, 150 mM NaCl, 1 mM EDTA, 1 mM DTT); proteins mixed in equimolar ratio at ~7 µM; fractions on Coomassie gels; details: both partners purified
CENP-E_(2091–2358)–GST = biological target: B2; assay: ITC; 276 µM BubR1 705-1050 titrated into 25 µM CENP-E 2091-2358-GST at 37°C; 20 mM HEPES pH 7.5, 150 mM NaCl, 1 mM EDTA, 0.005% Tween-20, 0.5 mM TCEP; one set of sites; details: both partners purified

With B1 the “stoichiometry N” value [1] was 2 and the binding result [2] was “binds”.

For B2, the Kd [3] was 318 nM.

B3: binds [4].

In the case of B4, the dH (CENP-E_(2091–2358)–GST) is reported as -5.1 kcal/mol and the “stoichiometry N” value (CENP-E_(2091–2358)–GST) is reported as 0.908.

B5: binds [4].
